Experimental data from the RNAGym collection of RNA variant scans (doi:10.1093/molbev/msab373).

B1: Azoarcus group I ribozyme (parent)
chain: GUGCCUUGCGCCGGGAAACCACGCAAGGGAUGGUGUCAAAUUCGGCGAAACCUAAGCGCCCGCCCGGGCGUAUGGCAACGCCGAGCCAAGCUUCGGCGCCUGCGCCGAUGAAGGUGUAGAGACUAGACGGCACCCACCUAAGGCAAACGCUAUGGUGAAGGCAUAGUCCAGGGAGUGGCGAAAGUCACACAAACCGG

Variants of: B1
Experiment: reverse-splicing fitness (ratio to wild type); higher = more active; in vitro selection; Mg2+ level not given
In short: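 An in vitro group I ribozyme library with randomized positions was T7-transcribed and gel-purified. In triplicate, 10 pmol RNA in EPPS pH 7.5 was reacted with 50 pmoles of a 30-nt RNA substrate for 1 h at 37 °C across several added MgCl2 levels (1–48 mM), then stopped with EDTA. Products were reverse transcribed from a substrate-complementary primer, PCR-amplified and sequenced (HiSeq 4000). Fitness is a variant's read proportion after selection over that before, normalised to wild type.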
For C82A A111G A120C A145G C150U C169A U176A, the reverse-splicing fitness was 0.0194. In the case of C82A A111G A120C A145G C150U C169A U176G, the reverse-splicing fitness is reported as 0.00816. C82A A111G A120C A145G C150U C169A U176C gave a reverse-splicing fitness of 0.0172. With C82A A111G A120C A145G C150G C169U the reverse-splicing fitness was 0.00967. C82A A111G A120C A145G C150G C169G showed a reverse-splicing fitness of 0.00734. In the case of C82A A111G A120C A145G C150G C169A, the reverse-splicing fitness is reported as 0.00974. C82A A111G A120C A145G C169U showed a reverse-splicing fitness of 0.013. C82A A111G A120C A145G C169G showed a reverse-splicing fitness of 0.00928. With C82A A111G A120C A145G C169A the reverse-splicing fitness was 0.0112. In the case of C82A A111G A120C A145C C150U C169A, the reverse-splicing fitness is reported as 0.00838. Variant C82A A111G A120C A145C C150U C169U has a reverse-splicing fitness of 0.0104. C82A A111G A120C A145C C150U C169G showed a reverse-splicing fitness of 0.00854. With C82A A111G A120C A145U C150G the reverse-splicing fitness was 0.011. Work on C82A A111G A120C A145U C150A yielded a reverse-splicing fitness of 0.0115. Variant C82A A111G A120C A145C C150A C169G has a reverse-splicing fitness of 0.00832. With C82A A111G A120C A145C C150A C169U the reverse-splicing fitness was 0.00853. With C82A A111G A120C A145C C150A C169A the reverse-splicing fitness was 0.00989. C82A A111G A120C A145U C150G C169A showed a reverse-splicing fitness of 0.00895. With C82A A111G A120C A145U C150G C169G the reverse-splicing fitness was 0.0075. Variant C82A A111G A120C A145U C150G C169U has a reverse-splicing fitness of 0.00884. Work on C82A A111G A120C A145G C150U U176G yielded a reverse-splicing fitness of 0.00916. For C82A A111G A120C A145G C150U U176C, the reverse-splicing fitness was 0.0258. Work on C82A A111G A120C A145G C150U U176A yielded a reverse-splicing fitness of 0.0156. C82A A111G A120C A145U C150G C169A U176A showed a reverse-splicing fitness of 0.011. With C82A A111G A120C A145U C150G C169A U176C the reverse-splicing fitness was 0.0114. For C82A A111G A120C A145U C150G C169A U176G, the reverse-splicing fitness was 0.00597. For C82A A111G A120C A145C C150U C169U U176C, the reverse-splicing fitness was 0.0102. Variant C82A A111G A120C A145C C150U C169U U176A has a reverse-splicing fitness of 0.0132. Work on C82A A111G A120C A145C C150U C169U U176G yielded a reverse-splicing fitness of 0.00597. C82A A111G A120C A145C C150U C169A U176G showed a reverse-splicing fitness of 0.00704. In the case of C82A A111G A120C A145C C150U C169A U176A, the reverse-splicing fitness is reported as 0.0199. For C82A A111G A120C A145C C150U C169A U176C, the reverse-splicing fitness was 0.00983. For C82A A111C C169U U176A, the reverse-splicing fitness was 0.0162. Variant C82A A111C C169U U176G has a reverse-splicing fitness of 0.00856. C82A A111C C169U U176C gave a reverse-splicing fitness of 0.0187. In the case of C82A A111G A120C A145U C150A C169U U176G, the reverse-splicing fitness is reported as 0.00664. With C82A A111G A120C A145U C150A C169U U176A the reverse-splicing fitness was 0.0152. In the case of C82A A111G A120C A145U C150A C169U U176C, the reverse-splicing fitness is reported as 0.0123. Work on C82A A111G A120C A145G C150G yielded a reverse-splicing fitness of 0.0105. For C82A A111G A120C A145G C150A, the reverse-splicing fitness was 0.0137. C82A A111G A120C A145G C150U showed a reverse-splicing fitness of 0.0349. C82A A111G A120C A145C C150U U176G showed a reverse-splicing fitness of 0.00644. For C82A A111G A120C A145C C150U U176A, the reverse-splicing fitness was 0.0118. C82A A111G A120C A145C C150U U176C gave a reverse-splicing fitness of 0.018. For C82A A111G A120C A145C C150A U176A, the reverse-splicing fitness was 0.0102. With C82A A111G A120C A145C C150A U176C the reverse-splicing fitness was 0.0151. For C82A A111G A120C A145C C150A U176G, the reverse-splicing fitness was 0.00529. With C82A A111G A120C A145U C150A C169G U176C the reverse-splicing fitness was 0.0245. Work on C82A A111G A120C A145U C150A C169G U176A yielded a reverse-splicing fitness of 0.0188. C82A A111G A120C A145U C150A C169G U176G showed a reverse-splicing fitness of 0.00642. C82A A111G A120C A145C C169G U176G gave a reverse-splicing fitness of 0.00569. Variant C82A A111G A120C A145C C169G U176A has a reverse-splicing fitness of 0.0285. In the case of C82A A111G A120C A145C C169G U176C, the reverse-splicing fitness is reported as 0.0238. With C82A A111G A120C A145U C150A U176A the reverse-splicing fitness was 0.012. Variant C82A A111G A120C A145U C150A U176C has a reverse-splicing fitness of 0.0198. Variant C82A A111G A120C A145U C150A U176G has a reverse-splicing fitness of 0.00739. In the case of C82A A111G A120C A145G C150A C169A U176A, the reverse-splicing fitness is reported as 0.019. In the case of C82A A111G A120C A145G C150A C169A U176C, the reverse-splicing fitness is reported as 0.0211. Work on C82A A111G A120C A145G C150A C169A U176G yielded a reverse-splicing fitness of 0.00941. In the case of C82A A111C C169U, the reverse-splicing fitness is reported as 0.0139. In the case of C82A A111G A120C A145C C150U C169G U176A, the reverse-splicing fitness is reported as 0.025. In the case of C82A A111G A120C A145C C150U C169G U176C, the reverse-splicing fitness is reported as 0.0213. For C82A A111G A120C A145C C150U C169G U176G, the reverse-splicing fitness was 0.00681. C82A A111G A120C A145G C150A C169U U176C showed a reverse-splicing fitness of 0.0154. With C82A A111G A120C A145G C150A C169U U176G the reverse-splicing fitness was 0.00842. With C82A A111G A120C A145G C150A C169U U176A the reverse-splicing fitness was 0.0153. Variant C82A A111G A120C A145U C150A C169A U176A has a reverse-splicing fitness of 0.0196. Variant C82A A111G A120C A145U C150A C169A U176G has a reverse-splicing fitness of 0.00712. With C82A A111G A120C A145U C150A C169A U176C the reverse-splicing fitness was 0.0134. With C82A A111G A120C A145C C169U U176A the reverse-splicing fitness was 0.0161. Variant C82A A111G A120C A145C C169U U176C has a reverse-splicing fitness of 0.0138. With C82A A111G A120C A145C C169U U176G the reverse-splicing fitness was 0.00478. With C82A A111G A120C A145G C169U U176G the reverse-splicing fitness was 0.00528. C82A A111G A120C A145G C169U U176C gave a reverse-splicing fitness of 0.0146. Variant C82A A111G A120C A145G C169U U176A has a reverse-splicing fitness of 0.0149. In the case of C82A A111G A120C A145C U176G, the reverse-splicing fitness is reported as 0.00728. Variant C82A A111G A120C A145C U176A has a reverse-splicing fitness of 0.0165. With C82A A111G A120C A145C U176C the reverse-splicing fitness was 0.024. C82A A111G A120C A145G C169G U176C gave a reverse-splicing fitness of 0.0275. Variant C82A A111G A120C A145G C169G U176G has a reverse-splicing fitness of 0.0054. With C82A A111G A120C A145G C169G U176A the reverse-splicing fitness was 0.0216. Work on C82A A111G A120C A145G C150U C169G U176C yielded a reverse-splicing fitness of 0.0192. Variant C82A A111G A120C A145G C150U C169G U176A has a reverse-splicing fitness of 0.0161. C82A A111G A120C A145G C150U C169G U176G gave a reverse-splicing fitness of 0.00629.
